Experimental data taken from the Human Domainome abundance scans (Beltran et al. 2025).
± gives the uncertainty stated by the source.

B1: V(D)J recombination-activating protein 2, residues 415 to 491; numbered along this chain, P55895 (parent)
chain: YWITCCPTCDVDINTWVPFYSTELNKPAMIYCSHGDGHWVHAQCMDLAERTLIHLSAGSNKYYCNEHVEIARALHTP
B2: E3 ubiquitin-protein ligase NEDD4, residues 836 to 881; numbered along this chain, P46934 (parent)
chain: EIEQGFLPKGWEVRHAPNGRPFFIDHNTKTTTWEDPRLKIPAHLRG

Variants of: B1
Assay: abundance fitness (aPCA) (normalised: wild type 0, dead -1); higher = more abundant; growth selection in yeast, the domain comes from the species named
Conditions: Homo sapiens

Variant | abundance fitness
YWITCCPTCDVDINTWVPFYSTELNKPAMIYCSHNDGHWVHAQCMDLAERTLIHLSAGSNKYYCNEHVEIARALHTP [G35N] | 0.137 ± 0.36
YWITCCPTCDVDINTWVPFYSTELNKPAMIYCSHGDGHWVHAQCMDLAERTLIHLSAGSNKFYCNEHVEIARALHTP [Y62F] | -0.003 ± 0.12
YWITCCPTCDVDIVTWVPFYSTELNKPAMIYCSHGDGHWVHAQCMDLAERTLIHLSAGSNKYYCNEHVEIARALHTP [N14V] | -0.149 ± 0.23
YWITCCPTCDVDINTWVPFYSTELNKPAMIYCSHGDGHWVHAQCMDLAERTLIHLNAGSNKYYCNEHVEIARALHTP [S56N] | -0.194 ± 0.1
YWITCCPTCDVDINTLVPFYSTELNKPAMIYCSHGDGHWVHAQCMDLAERTLIHLSAGSNKYYCNEHVEIARALHTP [W16L] | -0.346 ± 0.2
YWITCCPTCDVDINTWVPFYSTELNKPAMIYCSHGDGHWVHAQCMDLAERTLIQLSAGSNKYYCNEHVEIARALHTP [H54Q] | -0.277 ± 0.15
YWITCCPTCDVDINTWVPFYSTELNKPAMIYCSHGDGHWVHAQCMDLAERTLIHLSAGSNKYYCCEHVEIARALHTP [N65C] | -0.138 ± 0.1
YWITCCPTCDVDINTWVPFYSTELNKPAMIYCSHGDGHWVHAQCMDLAERTLIHLSAGSNKYYCNEHVEIARRLHTP [A73R] | 0.001 ± 0.057
YWITCCPTCDVDINTWVPFYSTELNMPAMIYCSHGDGHWVHAQCMDLAERTLIHLSAGSNKYYCNEHVEIARALHTP [K26M] | -0.597 ± 0.35
YWITCCPTCDVDINTWVPFYSTELNKPAMIYCSHGDGHWVHAQCMDLAERTLIHLSAGSNKYYCNEHVEGARALHTP [I70G] | -0.045 ± 0.053

Variants of: B2
Assay: as above
Conditions: Homo sapiens

Variant | abundance fitness
W11N | -0.106 ± 0.091
W11H | -0.761 ± 0.21
W11Q | -0.455 ± 0.068
W11T | -0.792 ± 0.17
W11P | -0.817 ± 0.12
W11E | -0.326 ± 0.044
W11C | -0.418 ± 0.094
W11L | -0.648 ± 0.073
W11A | -0.79 ± 0.096
W11K | -0.409 ± 0.063
W11D | -0.539 ± 0.16
W11G | -0.575 ± 0.037
W11F | -0.795 ± 0.21
W11S | -0.424 ± 0.048
W11I | -0.459 ± 0.1
W11M | -0.563 ± 0.058
F6G | 0.09 ± 0.04
F6S | 0.16 ± 0.032
F6L | 0.051 ± 0.031
F6H | 0.05 ± 0.058
F6A | 0.155 ± 0.034
F6V | 0.038 ± 0.044
F6W | -0.063 ± 0.058

Variant | abundance fitness
F6K | 0.117 ± 0.052
F6R | 0.149 ± 0.037
F6Y | 0.018 ± 0.035
F6Q | -0.297 ± 0.093
F6D | 0.241 ± 0.049
F6P | 0.001 ± 0.07
F6T | 0.202 ± 0.039
F6M | -0.345 ± 0.061
F6C | 0.265 ± 0.06
F6I | 0.372 ± 0.058
E12Q | -0.307 ± 0.077
E12M | -0.89 ± 0.14
E12F | -0.352 ± 0.11
E12G | -0.882 ± 0.11
E12L | -0.942 ± 0.094
E12K | -0.599 ± 0.058
E12S | -0.278 ± 0.05
E12H | -0.227 ± 0.11
E12T | -0.274 ± 0.059
E12N | -0.949 ± 0.17
E12C | -0.758 ± 0.063
E12I | -0.633 ± 0.099
E12A | -0.533 ± 0.066

Variant | abundance fitness
E12W | -0.692 ± 0.13
E12V | -0.526 ± 0.052
E12P | -0.967 ± 0.096
E12R | -0.793 ± 0.067
P17F | -0.447 ± 0.049
P17Q | -0.585 ± 0.17
P17N | -0.308 ± 0.1
P17T | -0.298 ± 0.07
P17L | -0.197 ± 0.058
P17W | -0.419 ± 0.077
P17Y | -0.662 ± 0.13
P17G | -0.323 ± 0.063
P17A | -0.075 ± 0.064
P17C | -0.295 ± 0.055
P17R | -0.178 ± 0.053
P17K | -0.115 ± 0.084
P17E | 0.016 ± 0.053
P17V | -0.191 ± 0.045
P17H | -0.276 ± 0.13
P17I | -0.012 ± 0.15
L7S | -0.573 ± 0.055
L7Q | -0.38 ± 0.14
L7E | -0.437 ± 0.056

Variant | abundance fitness
L7N | -1.01 ± 0.37
L7H | -0.543 ± 0.12
L7Y | -0.915 ± 0.23
L7F | -0.459 ± 0.098
L7G | -0.524 ± 0.048
L7K | -0.601 ± 0.054
L7P | -0.473 ± 0.096
L7C | -0.882 ± 0.16
L7M | -0.186 ± 0.037
L7W | -0.577 ± 0.11
L7T | -0.441 ± 0.1
L7I | -0.493 ± 0.1
L7R | -1.03 ± 0.13
L7A | -0.599 ± 0.061
G10H | -0.493 ± 0.13
G10F | -0.6 ± 0.14
G10N | -0.12 ± 0.062
G10L | -0.95 ± 0.12
G10C | -0.722 ± 0.059
G10K | -0.886 ± 0.19
G10V | -0.816 ± 0.1
G10P | -0.829 ± 0.2
G10W | -0.802 ± 0.061

Variant | abundance fitness
G10D | -0.81 ± 0.11
G10M | -0.854 ± 0.16
G10E | -0.605 ± 0.11
G10Y | -0.781 ± 0.041
G10R | -0.627 ± 0.055
G10S | -0.831 ± 0.081
G10I | -1.17 ± 0.28
G10T | -1 ± 0.2
K9Q | -0.078 ± 0.047
K9T | -0.237 ± 0.091
K9R | -0.205 ± 0.056
K9C | -0.268 ± 0.087
K9A | -0.124 ± 0.035
K9F | -0.825 ± 0.29
K9E | -0.119 ± 0.037
K9H | -0.251 ± 0.11
K9G | -0.252 ± 0.042
K9S | -0.048 ± 0.04
K9N | -0.112 ± 0.038
K9M | -0.344 ± 0.06
K9W | -0.52 ± 0.047
K9Y | -0.316 ± 0.037
K9P | -0.211 ± 0.066

Variant | abundance fitness
K9L | -0.257 ± 0.034
R14N | -0.783 ± 0.17
R14M | -0.525 ± 0.08
R14S | -0.297 ± 0.042
R14I | -0.556 ± 0.094
R14A | -0.156 ± 0.048
R14Y | -0.407 ± 0.054
R14H | -0.47 ± 0.12
R14T | -0.562 ± 0.075
R14P | -0.407 ± 0.13
R14C | -0.07 ± 0.047
R14G | -0.114 ± 0.044
R14W | -0.458 ± 0.061
R14Q | -0.121 ± 0.08
R14F | -0.272 ± 0.054
R14D | -0.289 ± 0.034
R14E | -0.539 ± 0.091
N18I | -0.976 ± 0.24
N18P | -0.255 ± 0.13
N18K | -0.652 ± 0.15
N18H | -0.718 ± 0.097
N18M | -0.907 ± 0.065
N18F | -0.75 ± 0.1
